Drawing on PMC8050884, this text covers stoichiometry N for two substances.

Assay [1] addresses SARS-CoV-2 spike trimer (aa 1-1208, furin site mutated, K986P/V987P) fused to human resistin (aa 23-108), FLAG-(His)6 (SARS-CoV-2 | human) (UniProt P0DTC2). Description: SEC-MALS; SEC-UPLC in PBS + 0.02% Tween-20 on Acquity BEH450 column coupled to MALS detector and refractometer; data not shown. In general terms: Size exclusion chromatography separates by hydrodynamic size, large species first.

For assay [2], the target named is soluble trimeric SARS-CoV-2 spike protein ectodomain (residues 1-1211) with phage foldon trimerization motif, 6xHis tag and AviTag (SARS-CoV-2 | not stated) (UniProt P0DTC2). The assay is described as follows: negative stain electron microscopy.

What is called stoichiometry N is the number of molecules, sites or subunits per partner or assembly. Turning to “SARS-CoV-2 spike trimer (aa 1-1208, furin site mutated, K986P/V987P) fused to human resistin (aa 23-108), FLAG-(His)6 (from UniProt P0DTC2;Q9HD89)”, in assay [1], the stoichiometry N turned out to be 3.
Consider “soluble trimeric SARS-CoV-2 spike protein ectodomain (residues 1-1211) with phage foldon trimerization motif, 6xHis tag and AviTag (from UniProt P0DTC2 14-1211)”, for which the stoichiometry N in assay [2] came out at 3.
